Experiment in all cases: AUC
The target in test [1] is Nek2 core leucine zipper construct LZ5 (residues 299-343) (UniProt P51955).
Test [2] concerns the target Nek2 leucine zipper construct LZ0 (residues 290-360) (UniProt P51955).
Test [3] concerns the target LZ5 K309C/C335A mutant of the Nek2 leucine zipper (UniProt P51955).

One may read the stoichiometry N as the number of molecules, sites or subunits per partner or assembly. Consider “Nek2 core leucine zipper construct LZ5 (residues 299-343) (from UniProt P51955 299-343) (domain or fragment)”, for which the stoichiometry N in test [1] was 2.

As for “Nek2 leucine zipper construct LZ0 (residues 290-360) (from UniProt P51955 290-360) (domain or fragment)”, in test [2], the stoichiometry N worked out at 2.

With “LZ5 K309C/C335A mutant of the Nek2 leucine zipper (from UniProt P51955 299-343) (domain or fragment)”, in test [3], the stoichiometry N worked out at 2.

For the origin of these results see publication PMC3149346.
